Laboratory results: the Immune Epitope Database (IEDB)

Key:
HLA-B*15:03 = assay: IEDB peptide-MHC binding, purified MHC/competitive/radioactivity; filed as Kd, often an IC50 or EC50 that approximates it; ≥ and ≤ were set here for values at or beyond the usual limits of such assays; settings: source organism: Vaccinia virus WR
HLA-B*07:02 = assay: IEDB peptide-MHC binding, purified MHC/direct/fluorescence; filed as Kd, often an IC50 or EC50 that approximates it; ≥ and ≤ were set here for values at or beyond the usual limits of such assays
HLA-B*51:01 [1] = assay: as above
HLA-A*02:19 = assay: IEDB peptide-MHC binding, purified MHC/competitive/fluorescence; filed as Kd, often an IC50 or EC50 that approximates it; ≥ and ≤ were set here for values at or beyond the usual limits of such assays
HLA-A*02:01 [2] = assay: as above
HLA-B*57:01 [3] = assay: IEDB peptide-MHC binding, purified MHC/competitive/radioactivity; filed as Kd, often an IC50 or EC50 that approximates it; ≥ and ≤ were set here for values at or beyond the usual limits of such assays
HLA-A*30:01 = assay: as above
HLA-B*58:01 [4] = assay: as above
HLA-A*69:01 = assay: IEDB peptide-MHC binding, purified MHC/competitive/fluorescence; filed as Kd, often an IC50 or EC50 that approximates it; ≥ and ≤ were set here for values at or beyond the usual limits of such assays
HLA-A*02:03 = assay: as above
HLA-A*02:11 = assay: as above
HLA-B*15:17 [5] = assay: IEDB peptide-MHC binding, purified MHC/direct/fluorescence; filed as Kd, often an IC50 or EC50 that approximates it; ≥ and ≤ were set here for values at or beyond the usual limits of such assays
HLA-B*57:01 [6] = assay: as above
HLA-B*58:01 [7] = assay: as above
HLA-A*32:01 = assay: IEDB peptide-MHC binding, purified MHC/competitive/radioactivity; filed as Kd, often an IC50 or EC50 that approximates it; ≥ and ≤ were set here for values at or beyond the usual limits of such assays
HLA-B*15:01 [8] = assay: as above
HLA-B*08:01 [9] = assay: as above
HLA-B*35:01 = assay: as above; settings: source organism: Dengue virus 3 Martinique/1243/1999
HLA-B*53:01 = assay: as above; settings: source organism: Dengue virus 3 Martinique/1243/1999
HLA-B*51:01 [10] = assay: IEDB peptide-MHC binding, purified MHC/competitive/fluorescence; filed as Kd, often an IC50 or EC50 that approximates it; ≥ and ≤ were set here for values at or beyond the usual limits of such assays
HLA-B*18:01 = assay: IEDB peptide-MHC binding, purified MHC/direct/fluorescence; filed as Kd, often an IC50 or EC50 that approximates it; ≥ and ≤ were set here for values at or beyond the usual limits of such assays; settings: source organism: Mycobacterium tuberculosis C
HLA-B*44:02 = assay: as above; settings: source organism: Mycobacterium tuberculosis C
HLA-A*31:01 = assay: as above; settings: source organism: Mycobacterium tuberculosis C
HLA-B*48:01 = assay: as above; settings: source organism: Mycobacterium tuberculosis C
HLA-B*15:01 [11] = assay: as above
HLA-B*46:01 [12] = assay: as above; settings: source organism: Mycobacterium tuberculosis C
HLA-A*03:01 = assay: as above; settings: source organism: Mycobacterium tuberculosis C
HLA-B*40:01 = assay: as above; settings: source organism: Mycobacterium tuberculosis C
HLA-A*01:01 = assay: as above; settings: source organism: Mycobacterium tuberculosis C
HLA-A*11:01 = assay: as above; settings: source organism: Mycobacterium tuberculosis C
HLA-B*08:01 [13] = assay: as above; settings: source organism: Mycobacterium tuberculosis C
HLA-B*15:17 [14] = assay: IEDB peptide-MHC binding, purified MHC/competitive/fluorescence; filed as Kd, often an IC50 or EC50 that approximates it; ≥ and ≤ were set here for values at or beyond the usual limits of such assays; settings: source organism: Mus musculus
HLA-B*15:01 [15] = assay: as above; settings: source organism: Mus musculus
HLA-B*57:01 [16] = assay: as above; settings: source organism: Mus musculus
HLA-B*46:01 [17] = assay: as above; settings: source organism: Mus musculus
HLA-A*26:01 = assay: as above; settings: source organism: Mus musculus
HLA-B*39:01 = assay: as above; settings: source organism: Mus musculus
HLA-B*27:03 = assay: as above; settings: source organism: Mus musculus
HLA-A*02:01 [18] = assay: IEDB peptide-MHC binding, purified MHC/direct/fluorescence; filed as Kd, often an IC50 or EC50 that approximates it; ≥ and ≤ were set here for values at or beyond the usual limits of such assays; settings: source organism: Mus musculus
[19] = source organism: Mammarenavirus lassaense
[20] = source organism: Bacillus anthracis str. A0488
[21] = source organism: Dengue virus 4 Dominica/814669/1981
[22] = source organism: Human immunodeficiency virus 1
[23] = source organism: Dengue virus 3 Martinique/1243/1999
[24] = source organism: Dengue virus 2 Jamaica/1409/1983
[25] = source organism: Burkholderia pseudomallei 305
[26] = source organism: West Nile virus
[27] = source organism: Bacillus anthracis
[28] = source organism: Vaccinia virus WR
[29] = source organism: Human immunodeficiency virus type 1 BH10
[30] = source organism: Mycobacterium tuberculosis C
[31] = source organism: Giardia lamblia ATCC 50803
[32] = source organism: Burkholderia vietnamiensis G4

ALVFGRRLF
Kd (HLA-B*15:03): 1130 nM

AVKAGACML
Kd (HLA-B*07:02; [19]): 2470 nM | Kd (HLA-B*51:01 [1]; [19]): ≥ 20000 nM

DMNLEQWSV
Kd (HLA-A*02:19; [20]): 11.7 nM | Kd (HLA-A*02:01 [2]; [20]): ≥ 20000 nM

FLRLSANLF
Kd (HLA-B*15:03): 0.119 nM

GASRRSWPLN
Kd (HLA-B*57:01 [3]; [21]): 12800 nM | Kd (HLA-A*30:01; [21]): 3720 nM | Kd (HLA-B*58:01 [4]; [21]): 6020 nM

GGWRFQGSW
Kd (HLA-B*57:01 [3]; source organism: Dengue virus 1 Brazil/97-11/1997): 8.56 nM

GLADQLIHL
Kd (HLA-A*02:19; [22]): 17.3 nM | Kd (HLA-A*02:01 [2]; [22]): ≤ 0.1 nM | Kd (HLA-A*69:01; [22]): 11700 nM | Kd (HLA-A*02:03; [22]): 2 nM | Kd (HLA-A*02:11; [22]): 0.3 nM

GMSKEPGVVS
Kd (HLA-B*58:01 [4]; [23]): 1150 nM

GPSLRTTTV
Kd (HLA-B*51:01 [1]; source organism: dengue virus type 1): ≥ 20000 nM

ICSAVPSHW
Kd (HLA-B*15:17 [5]; source organism: dengue virus type 2): 416 nM | Kd (HLA-B*57:01 [3]; [24]): 2.72 nM

IITASILLW
Kd (HLA-B*57:01 [3]; [24]): 11.1 nM | Kd (HLA-B*58:01 [4]; [24]): 14.4 nM

IPDGWWWAI
Kd (HLA-A*02:01 [2]; [25]): 93 nM | Kd (HLA-A*02:11; [25]): 71.2 nM

ISGKSTDMW
Kd (HLA-B*15:17 [5]; [26]): 123 nM | Kd (HLA-B*57:01 [6]; [26]): 890 nM

ISGPIKHPL
Kd (HLA-B*15:17 [5]; [27]): 88.3 nM | Kd (HLA-B*57:01 [6]; [27]): 280 nM | Kd (HLA-B*58:01 [7]; [27]): ≥ 20000 nM

KAIKILIGF
Kd (HLA-B*58:01 [4]; [21]): 7.66 nM

KASLIEVKTC
Kd (HLA-B*57:01 [3]; [23]): 249 nM | Kd (HLA-B*58:01 [4]; [23]): 270 nM

KIFFRPTTI
Kd (HLA-A*32:01; [28]): 1.09 nM | Kd (HLA-B*15:01 [8]; [28]): 93 nM | Kd (HLA-B*15:03): 2660 nM | Kd (HLA-A*30:01; [28]): 16.8 nM | Kd (HLA-B*08:01 [9]; [28]): 1740 nM

KKVCFVNKL
Kd (HLA-B*15:03): 4.51 nM

KKYNVRYVF
Kd (HLA-B*15:03): 1.01 nM

LASVALNMF
Kd (HLA-B*15:03): 411 nM

LEVRFGNDV
Kd (HLA-B*15:03): 1340 nM

LKTTFVHPF
Kd (HLA-B*15:03): 1.32 nM

LLQLTVWGI
Kd (HLA-A*02:19; [29]): ≤ 0.1 nM | Kd (HLA-A*02:01 [2]; [29]): 19 nM | Kd (HLA-A*02:03; [29]): 146 nM | Kd (HLA-A*02:11; [29]): 4.3 nM

LMSEETIDF
Kd (HLA-B*15:03): 11.6 nM

LQAKSGSSL
Kd (HLA-B*15:01 [8]; [28]): 4.6 nM | Kd (HLA-B*15:03): 0.326 nM

LRFLEKTSF
Kd (HLA-B*15:03): 2.23 nM

MAMTDTTPF
Kd (HLA-A*32:01; [23]): 242 nM | Kd (HLA-B*15:01 [8]; [23]): 11.9 nM | Kd (HLA-B*35:01): 1.81 nM | Kd (HLA-B*53:01): 5.45 nM | Kd (HLA-B*58:01 [4]; [23]): 10.7 nM | Kd (HLA-B*08:01 [9]; [23]): 229 nM

MSSGNLLFTG
Kd (HLA-B*57:01 [3]; [24]): 163 nM | Kd (HLA-B*58:01 [4]; [24]): 916 nM

MSSSQDLSF
Kd (HLA-B*15:01 [8]; [28]): 15.9 nM | Kd (HLA-B*15:03): 108 nM

PTAGILKRW
Kd (HLA-B*57:01 [3]; [24]): 200 nM

PTSRTTWSIH
Kd (HLA-B*57:01 [3]; [24]): 7680 nM | Kd (HLA-A*30:01; [24]): 4070 nM | Kd (HLA-B*58:01 [4]; [24]): 2620 nM

RFRNHMCLV
Kd (HLA-A*32:01; [28]): ≥ 77800 nM | Kd (HLA-B*15:01 [8]; [28]): 4090 nM | Kd (HLA-B*15:03): ≥ 42800 nM | Kd (HLA-A*30:01; [28]): 31.3 nM | Kd (HLA-B*08:01 [9]; [28]): 864 nM

RSWPLNEAI
Kd (HLA-A*32:01; [24]): 87 nM | Kd (HLA-B*58:01 [4]; [24]): 7.1 nM

TPKIRFWHV
Kd (HLA-B*51:01 [10]; [30]): ≥ 20000 nM | Kd (HLA-B*18:01): ≥ 20000 nM | Kd (HLA-B*07:02; [30]): ≥ 20000 nM | Kd (HLA-B*44:02): ≥ 20000 nM | Kd (HLA-A*31:01): ≥ 20000 nM | Kd (HLA-B*48:01): ≥ 20000 nM | Kd (HLA-B*15:01 [11]; [30]): ≥ 20000 nM | Kd (HLA-B*57:01 [6]; [30]): ≥ 20000 nM | Kd (HLA-B*46:01 [12]): ≥ 20000 nM | Kd (HLA-A*03:01): ≥ 20000 nM | Kd (HLA-B*40:01): ≥ 20000 nM | Kd (HLA-A*01:01): ≥ 20000 nM | Kd (HLA-B*58:01 [7]; [30]): ≥ 20000 nM | Kd (HLA-A*11:01): ≥ 20000 nM | Kd (HLA-B*08:01 [13]): 91.5 nM

VLRQAALSL
Kd (HLA-B*07:02; [31]): 13 nM | Kd (HLA-B*15:01 [11]; [31]): 44 nM | Kd (HLA-B*51:01 [1]; [31]): ≥ 20000 nM

VLWKSYPLV
Kd (HLA-B*15:17 [14]): ≥ 20000 nM | Kd (HLA-B*15:01 [15]): ≥ 20000 nM | Kd (HLA-B*57:01 [16]): ≥ 20000 nM | Kd (HLA-B*46:01 [17]): ≥ 20000 nM | Kd (HLA-A*26:01): ≥ 20000 nM | Kd (HLA-B*51:01 [10]; source organism: Mus musculus): ≥ 20000 nM | Kd (HLA-A*69:01; source organism: Mus musculus): ≥ 20000 nM | Kd (HLA-B*39:01): ≥ 20000 nM | Kd (HLA-B*27:03): ≥ 20000 nM | Kd (HLA-A*02:01 [18]): 0.3 nM

VPGFHGWAT
Kd (HLA-B*07:02; source organism: Amur virus): 115 nM | Kd (HLA-B*51:01 [1]; source organism: Amur virus): ≥ 20000 nM

WFMTWQPNI
Kd (HLA-A*02:19; [32]): 52.8 nM | Kd (HLA-A*02:01 [2]; [32]): 540 nM
